Test [1] concerns the target T1, recombinant human TLR4-MD2 protein (R&D Systems) (human, UniProt O00206 24-631; Q9Y6Y9 17-160).
T1 construct: range 24-631;range 17-160; Bought protein, described as a mixture of recombinant human TLR4 and MD2 proteins expressed in NS0 cells; also called recombinant-TLR4-MD2 protein; soluble recombinant TLR4-MD2
Kind of test: fluorescence polarization, 2 µM FITC-SPA4 with 0-5.6 µM TLR4-MD2, one-site fit, average Kd with blank subtraction; with blank subtraction.
Procedure: (§1) Experimental data were curve-fitted using Graphpad Prism program, and the binding affinity (Kd) was determined.
(§2) Lower values of the Kd indicate strong binding affinity.

For test [2], the target named is T1, recombinant human TLR4-MD2 protein (R&D …). As to the kind of experiment: fluorescence polarization, 2 µM FITC-SPA4 with 0-5.6 µM TLR4-MD2, one-site fit, average Kd without blank subtraction; without blank subtraction.
Procedure: as §1, §2
The target is the same in test [3]. As to the kind of experiment: fluorescence polarization, 2 µM FITC-SPA4 peptide with increasing recombinant TLR4-MD2, one-site binding fit, one representative experiment. On the technique in general: Fluorescence polarisation rises when a labelled molecule tumbles more slowly, as on binding a larger partner.
Procedure: The background fluorescence polarization values were subtracted and plotted. The binding plot was then fitted into a one-site binding model using standard regression analysis and Kd values were noted. Results are from one representative experiment out of a total of three separate experiments performed at different times.
Regression analysis was carried out using the Graphpad Prism program (Graphpad software, La Zolla, Calif.). Experimental data were curve-fitted using Graphpad Prism program, and the binding affinity (Kd) was determined.

Primed or numbered codes have the meaning given here. No end group written: not given here. FITC′ = fluorescein isothiocyanate; Ahx = NCCCCCC(=O)O

In general, Kd refers to the equilibrium constant for the complex coming apart.

T1 sequence (O00206 other isoform, or with tags, fused parts or gaps limits assumed, form in doubt, chain 1 of 2): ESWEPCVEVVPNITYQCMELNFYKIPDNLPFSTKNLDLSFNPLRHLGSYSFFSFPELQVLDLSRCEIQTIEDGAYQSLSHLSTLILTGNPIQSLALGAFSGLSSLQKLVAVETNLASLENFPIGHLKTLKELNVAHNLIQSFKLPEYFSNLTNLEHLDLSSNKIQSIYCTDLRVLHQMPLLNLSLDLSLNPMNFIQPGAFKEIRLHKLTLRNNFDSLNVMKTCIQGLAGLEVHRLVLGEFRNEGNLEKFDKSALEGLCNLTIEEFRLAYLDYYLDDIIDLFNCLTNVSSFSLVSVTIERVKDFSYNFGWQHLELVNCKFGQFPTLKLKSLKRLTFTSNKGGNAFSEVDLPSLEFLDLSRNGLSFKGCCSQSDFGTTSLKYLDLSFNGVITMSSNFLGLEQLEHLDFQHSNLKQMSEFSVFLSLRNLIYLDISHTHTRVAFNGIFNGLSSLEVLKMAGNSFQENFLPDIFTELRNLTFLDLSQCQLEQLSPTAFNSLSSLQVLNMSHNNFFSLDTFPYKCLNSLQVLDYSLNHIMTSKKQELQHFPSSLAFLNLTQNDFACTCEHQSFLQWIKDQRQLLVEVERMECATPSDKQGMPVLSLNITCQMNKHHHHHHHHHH
T1 sequence (Q9Y6Y9 other isoform, or with tags, fused parts or gaps limits assumed, form in doubt, chain 2 of 2): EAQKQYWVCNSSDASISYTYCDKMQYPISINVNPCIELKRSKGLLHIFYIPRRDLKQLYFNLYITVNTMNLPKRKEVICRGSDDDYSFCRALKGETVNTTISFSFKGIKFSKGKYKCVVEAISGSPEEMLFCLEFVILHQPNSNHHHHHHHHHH

B1: FITC-SPA4 peptide (peptide)
peptide: {FITC′-Ahx}-GDFRYSDGTPVNYTNWYRGE
notes: also called fluorescein isothiocyanate conjugated SPA4 peptide
As for B1, the Kd in test [1] stood at 407 nM; in test [2], 255 nM; in test [3], 314 nM.
